Target: IL-15R β protein
Test: BLI (Octet-RED); IL-15R β immobilized on Ni-NTA biosensors, serial dilutions of the complex as analyte, global 1:1 fit

Sequence of IL-15R β protein (P14784 27-240): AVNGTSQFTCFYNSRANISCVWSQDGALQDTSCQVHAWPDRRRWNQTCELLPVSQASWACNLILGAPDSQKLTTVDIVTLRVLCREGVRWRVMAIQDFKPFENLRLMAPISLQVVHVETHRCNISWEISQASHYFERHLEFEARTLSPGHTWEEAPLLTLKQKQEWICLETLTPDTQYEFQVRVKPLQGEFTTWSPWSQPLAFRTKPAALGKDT

Substance: ALT803 (Fc fusion)
- Kd: 3.9 nM
- koff: 0.000235 s⁻¹
- kon: 60400 M⁻¹ s⁻¹
